Experimental data as given in patent publication US20240226118A1 (US Dept. of Health and Human Services, published 2024).

Target: T1, ATP1A1 genetically fused to yellow fluorescent protein (YFP) tag (human, UniProt P05023 1-1023)
T1 construct: Stood in lysates of RSV-infected H1299 ATP1A1-YFP cells and was pulled down with YFP-specific antibodies; The other subunits of the Na+,K+-ATPase complex may have been present; also called ATP1A1-YFP; ATPase Na+/K+ transporting subunit alpha 1; not shown: yellow fluorescent protein (YFP) tag
Assay: co-immunoprecipitation

B1: RSV attachment (G) glycoprotein (other)
chain: MSKNKDQRTAKTLERTWDTLNHLLFISSCLYKLNLKSVAQITLSILAMIISTSLIIAAIIFIASANHKVTPTTAIIQDATSQIKNTTPTYLTQNPQLGISPSNPSEITSQITTILASTTPGVKSTLQSTTVKTKNTTTTQTQPSKPTTKQRQNKPPSKPNNDFHFEVFNFVPCSICSNNPTCWAICKRIPNKKPGKKTTTKPTKKPTLKTTKKDPKPQTTKSKEVPTTKPTEEPTINTTKTNIITTLLTSNTTGNPELTSQMETFHSTSSEGNPSPSQVSTTSEYPSQPSSPPNTPRQ
notes: Viral protein in lysates of RSV-infected cells; also called RSV G
Q: Does B1 bind?
A: Result: no binding
